Values quoted from earlier work, collected in article PMC12865133, “Macrocyclic Molecular Glues for the 14‐3‐3/ChREBP Interaction: Affinity and Cooperativity in an Inverse Relationship” (Angewandte Chemie (International Ed. in English), 2025).

Target: ChREBP (Homo sapiens) (UniProt Q9NP71)
Conditions: cited from earlier work

Sequence of ChREBP (Homo sapiens) (Q9NP71 whole entry): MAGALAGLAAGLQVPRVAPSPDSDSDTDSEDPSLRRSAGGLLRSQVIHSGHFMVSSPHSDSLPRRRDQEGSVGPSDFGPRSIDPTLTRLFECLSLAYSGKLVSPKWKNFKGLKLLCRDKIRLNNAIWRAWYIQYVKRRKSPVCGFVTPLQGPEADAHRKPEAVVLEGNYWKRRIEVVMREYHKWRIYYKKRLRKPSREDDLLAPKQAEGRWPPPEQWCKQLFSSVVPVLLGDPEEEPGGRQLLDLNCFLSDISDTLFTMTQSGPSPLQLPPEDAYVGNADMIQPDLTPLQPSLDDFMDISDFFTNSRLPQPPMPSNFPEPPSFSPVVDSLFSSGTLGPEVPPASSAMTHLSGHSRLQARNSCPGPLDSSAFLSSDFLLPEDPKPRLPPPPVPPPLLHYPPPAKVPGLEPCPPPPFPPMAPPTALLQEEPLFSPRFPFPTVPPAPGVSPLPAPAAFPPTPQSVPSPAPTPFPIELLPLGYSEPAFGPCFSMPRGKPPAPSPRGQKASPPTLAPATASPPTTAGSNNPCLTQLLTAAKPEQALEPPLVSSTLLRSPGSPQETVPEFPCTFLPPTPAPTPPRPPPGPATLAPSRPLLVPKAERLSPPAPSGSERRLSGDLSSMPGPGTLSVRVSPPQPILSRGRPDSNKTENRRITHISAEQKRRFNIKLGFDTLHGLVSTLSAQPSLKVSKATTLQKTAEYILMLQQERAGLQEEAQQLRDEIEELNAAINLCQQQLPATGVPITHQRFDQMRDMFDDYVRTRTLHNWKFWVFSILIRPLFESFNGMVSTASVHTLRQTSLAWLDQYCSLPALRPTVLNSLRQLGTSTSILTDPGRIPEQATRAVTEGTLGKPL
Sequence of 14-3-3 (P31946 2-246): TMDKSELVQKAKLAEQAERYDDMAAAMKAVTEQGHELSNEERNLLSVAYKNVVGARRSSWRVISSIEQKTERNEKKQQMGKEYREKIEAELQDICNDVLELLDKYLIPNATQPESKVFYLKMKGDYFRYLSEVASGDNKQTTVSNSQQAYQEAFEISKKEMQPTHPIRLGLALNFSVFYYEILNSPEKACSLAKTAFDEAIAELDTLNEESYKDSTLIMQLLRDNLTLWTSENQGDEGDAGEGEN

14-3-3 (from UniProt P31946)
Kd: 1500 nM
